Reference: the supplement of paper PMC6379048

Key:
Assay in all cases: Kd (EC50 corrected by depletion factor)
YTHDC2 = target: T1, YTHDC2 (UniProt Q9H6S0)
T1 sequence: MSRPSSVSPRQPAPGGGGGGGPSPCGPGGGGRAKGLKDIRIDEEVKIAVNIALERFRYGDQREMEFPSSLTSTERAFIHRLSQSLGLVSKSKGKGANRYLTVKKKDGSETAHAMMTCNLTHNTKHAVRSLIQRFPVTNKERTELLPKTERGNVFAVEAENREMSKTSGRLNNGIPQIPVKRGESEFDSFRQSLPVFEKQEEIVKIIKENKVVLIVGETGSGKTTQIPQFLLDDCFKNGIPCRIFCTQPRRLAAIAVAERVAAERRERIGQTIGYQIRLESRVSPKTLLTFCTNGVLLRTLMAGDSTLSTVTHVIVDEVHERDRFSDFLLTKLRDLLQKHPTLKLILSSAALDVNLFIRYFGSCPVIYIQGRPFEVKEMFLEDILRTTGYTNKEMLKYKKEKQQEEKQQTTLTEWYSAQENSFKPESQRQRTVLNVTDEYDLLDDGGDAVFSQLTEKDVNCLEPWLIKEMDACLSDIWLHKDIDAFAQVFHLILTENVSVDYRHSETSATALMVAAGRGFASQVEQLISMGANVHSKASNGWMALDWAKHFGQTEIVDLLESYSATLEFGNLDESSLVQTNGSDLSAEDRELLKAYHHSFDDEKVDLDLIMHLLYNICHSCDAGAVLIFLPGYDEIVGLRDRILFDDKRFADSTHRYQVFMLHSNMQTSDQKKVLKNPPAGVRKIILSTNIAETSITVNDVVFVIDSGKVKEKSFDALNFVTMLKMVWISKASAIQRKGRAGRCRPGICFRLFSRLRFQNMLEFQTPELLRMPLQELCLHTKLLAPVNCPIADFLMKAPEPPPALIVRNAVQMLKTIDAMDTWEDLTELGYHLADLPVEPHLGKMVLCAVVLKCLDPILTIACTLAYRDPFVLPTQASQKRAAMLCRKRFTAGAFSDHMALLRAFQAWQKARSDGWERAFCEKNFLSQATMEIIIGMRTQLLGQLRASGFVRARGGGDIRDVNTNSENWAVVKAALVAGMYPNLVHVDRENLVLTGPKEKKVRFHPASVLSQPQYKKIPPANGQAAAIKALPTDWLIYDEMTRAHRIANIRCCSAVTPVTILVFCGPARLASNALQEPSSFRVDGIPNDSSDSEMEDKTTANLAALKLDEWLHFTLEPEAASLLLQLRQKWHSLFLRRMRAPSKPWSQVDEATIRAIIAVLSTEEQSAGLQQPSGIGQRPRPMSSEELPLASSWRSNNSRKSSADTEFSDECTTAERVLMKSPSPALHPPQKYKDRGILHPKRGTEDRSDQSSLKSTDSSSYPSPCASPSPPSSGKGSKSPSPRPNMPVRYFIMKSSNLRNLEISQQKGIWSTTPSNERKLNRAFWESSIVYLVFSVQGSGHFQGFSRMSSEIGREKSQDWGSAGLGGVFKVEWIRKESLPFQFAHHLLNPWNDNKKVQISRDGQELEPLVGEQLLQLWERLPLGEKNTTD
Summary of the method: (§1)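 To obtain EC50, data were fitted with a four-parameter log-logistic model; Kd was then EC50 multiplied by a protein-dependent depletion factor. Beforehand, free RNA oligos (0 nM to 30 μM) were pre-incubated with HEK293-FT lysate (2.5 mg protein/well) for 1 h at 4°C. The lysate then spent 30 min at 4°C with the same 5′-amino-C6 oligos coupled to NHS-Sepharose beads, and bound proteins were quantified by label-free LC-MS/MS, normalised to the control.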

PINX1 = target: T2, PINX1 (UniProt Q96BK5)
T2 sequence: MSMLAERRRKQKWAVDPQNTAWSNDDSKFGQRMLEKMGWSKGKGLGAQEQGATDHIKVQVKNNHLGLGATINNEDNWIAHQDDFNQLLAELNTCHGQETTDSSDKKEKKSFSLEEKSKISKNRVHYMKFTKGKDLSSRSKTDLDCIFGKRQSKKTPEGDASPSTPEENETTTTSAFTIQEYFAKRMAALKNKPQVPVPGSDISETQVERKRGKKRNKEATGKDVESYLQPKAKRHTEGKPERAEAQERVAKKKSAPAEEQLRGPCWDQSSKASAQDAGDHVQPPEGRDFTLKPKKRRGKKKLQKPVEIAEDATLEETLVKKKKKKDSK
Summary of the method: as §1

ERI3 = target: T3, ERI3 (UniProt O43414)
T3 sequence: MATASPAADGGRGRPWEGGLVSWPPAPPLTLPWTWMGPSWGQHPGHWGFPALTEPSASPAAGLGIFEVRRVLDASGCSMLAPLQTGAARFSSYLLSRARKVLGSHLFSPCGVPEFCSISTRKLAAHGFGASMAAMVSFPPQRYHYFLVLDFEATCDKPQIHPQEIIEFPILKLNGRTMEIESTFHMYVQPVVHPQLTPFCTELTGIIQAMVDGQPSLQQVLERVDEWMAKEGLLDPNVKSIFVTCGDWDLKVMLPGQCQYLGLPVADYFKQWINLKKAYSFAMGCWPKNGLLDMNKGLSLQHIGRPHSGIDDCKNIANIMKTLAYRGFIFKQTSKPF
Summary of the method: as §1

TUBB4B = TUBB4B (UniProt P68371)
Sequence of TUBB4B (P68371 whole entry): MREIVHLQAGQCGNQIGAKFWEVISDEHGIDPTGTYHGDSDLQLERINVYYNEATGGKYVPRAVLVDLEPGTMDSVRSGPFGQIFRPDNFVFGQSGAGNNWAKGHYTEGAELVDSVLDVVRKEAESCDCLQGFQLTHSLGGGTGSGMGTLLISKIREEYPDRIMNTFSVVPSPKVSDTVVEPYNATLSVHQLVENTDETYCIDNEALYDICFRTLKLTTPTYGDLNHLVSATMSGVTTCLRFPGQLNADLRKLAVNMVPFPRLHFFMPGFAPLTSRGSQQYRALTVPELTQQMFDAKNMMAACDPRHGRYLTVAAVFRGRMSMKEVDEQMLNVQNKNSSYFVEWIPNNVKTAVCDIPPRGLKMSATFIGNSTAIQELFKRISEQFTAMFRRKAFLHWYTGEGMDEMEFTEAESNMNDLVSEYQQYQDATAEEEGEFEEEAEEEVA
Summary of the method: as §1

ZFP36L1 = target: T4, ZFP36L1 (UniProt Q07352)
T4 sequence: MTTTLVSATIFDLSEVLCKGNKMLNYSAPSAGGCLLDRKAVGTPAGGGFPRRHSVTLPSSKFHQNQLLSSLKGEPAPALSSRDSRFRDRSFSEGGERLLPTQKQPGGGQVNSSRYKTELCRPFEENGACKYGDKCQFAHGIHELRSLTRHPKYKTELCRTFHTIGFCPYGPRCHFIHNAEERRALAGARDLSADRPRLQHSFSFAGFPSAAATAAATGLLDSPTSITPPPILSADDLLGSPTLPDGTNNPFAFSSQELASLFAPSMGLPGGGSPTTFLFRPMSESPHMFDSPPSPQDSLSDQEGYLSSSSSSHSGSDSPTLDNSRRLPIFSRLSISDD
Summary of the method: as §1

CUGUCCU showed a Kd (YTHDC2) of 0.986 µM.

For AAUAAA, the Kd (PINX1) was 0.36 µM, the Kd (ERI3) was 0.173 µM and the Kd (TUBB4B) was 2.43 µM.

For UAUUUAU, the Kd (ZFP36L1) was 0.0244 µM.
